In PMC5064014, “SUMOylated NKAP is essential for chromosome alignment by anchoring CENP-E to kinetochores” (Nature Communications, 2016):
One block for each binder: values may come before it.

Biological target: T1, human His-Bub3 full-length recombinant protein (human, UniProt O43684 1-328)
T1 construct: Bub3, human, full-length recombinant protein; also called Recombinant His-Bub3; source: bought: Abcam (ab139802)
Assay: pull-down; recombinant His-Bub3 incubated with GST, GST-NKAP and its deletion mutants; 50 mM Tris–HCl pH 7.5, 150 mM NaCl, 1 mM EDTA, 0.3 mM dithiothreitol, 0.1% NP-40; overnight at 4 °C; bound protein by immunoblot
Details: both partners purified

T1 sequence (O43684 whole entry): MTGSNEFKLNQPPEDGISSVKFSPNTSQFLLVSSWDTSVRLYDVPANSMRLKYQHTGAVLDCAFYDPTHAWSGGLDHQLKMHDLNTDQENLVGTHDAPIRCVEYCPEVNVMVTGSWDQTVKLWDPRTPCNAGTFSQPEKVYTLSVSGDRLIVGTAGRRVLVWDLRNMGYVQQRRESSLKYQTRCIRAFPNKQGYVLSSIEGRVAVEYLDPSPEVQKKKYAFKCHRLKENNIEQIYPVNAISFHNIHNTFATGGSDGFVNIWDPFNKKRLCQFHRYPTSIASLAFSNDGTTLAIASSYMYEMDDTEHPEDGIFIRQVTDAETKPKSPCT

- binding result: binds
B1: GST-NKAP deletion mutant aa 139–276 (domain or fragment, human, UniProt Q8N5F7 139-276, looked up)
chain: ELGAPEVWGLSPKNPEPDSDEHTPVEDEEPKKSTTSASTSEEEKKKKSSRSKERSKKRRKKKSSKRKHKKYSEDSDSDSDSETDSSDEDNKRRAKKAKKKEKKKKHRSKKYKKKRSKKSRKESSDSSSKESQEEFLEN
notes: The text names the region; source: E. coli DH5α, purified (glutathione Sepharose 4B)

- binding result: binds
B2: GST-NKAP deletion mutant aa 1–138 (domain or fragment, human, UniProt Q8N5F7 1-138, looked up)
chain: MAPVSGSRSPDREASGSGGRRRSSSKSPKPSKSARSPRGRRSRSHSCSRSGDRNGLTHQLGGLSQGSRNQSYRSRSRSRSRERPSAPRGIPFASASSSVYYGSYSRPYGSDKPWPSLLDKEREESLRQKRLSERERIG
notes: as for B1
